Data on two molecules can be found in PMC3324987 (Frontiers in Molecular Neuroscience, 2012).

One test relates to apo-CaBP1. The experiment in a line: ITC and HSQC of NSCaTE binding to apo-CaBP1. The arrangement: species or system human. The note with it: ITC and NMR, compared to Ca^2+-CaBP1.
Test [1] addresses C-lobe of calmodulin (residues 78-148) (UniProt P0DP23 79-149). Briefly: other fluorescence titration.
For test [2], the target named is N-lobe of calmodulin (residues 1-77) (UniProt P0DP23 2-78). Briefly: other fluorescence titration.

On to “long NSCaTE peptide: biosynthetically produced N-terminal region of Cav1.2 (residues 1–68), expressed in E. coli”, for which the “binding to apo-CaBP1” value in the test with apo-CaBP1 was “extremely weak”.

B1: long NSCaTE peptide, Cav1.2 N-terminal cytoplasmic region residues 1-68 (domain or fragment)
chain: MVNENTRMYIPEENHQGSNYGSPRPAHANMNANAAAGLAPEHIPTPGAALSWQAAIDAARQAKLMGSA
Turning to B1, the Ka was 232000 M⁻¹ in test [1] and 1.39e+06 M⁻¹ in test [2].
